According to paper PMC2592539:
Square brackets hold non-standard residues; d marks the D form. Side chains are listed from the residue outwards. Ends that are not written are not given here. * marks the point of attachment. Biotin = O=C1N[C@H]2[C@H](CS[C@H]2CCCCC(=O)*)N1; Bpa = N[C@@H](Cc1ccc(C(=O)c2ccccc2)cc1)C(=O)O; PEG linker = not defined here

Assays:
[1] = molecular target: HLA-A0201 MHC class I molecule on T2 cells (human (endogenous in T2) | human); assay: flow cytometry on cells; internalization study: T2 cells with 1 uM biotinylated peptide at 37 degrees, peptide left on; surface peptide by anti-biotin staining at 2, 6 and 24 h
[2] = molecular target: HLA-A0201 MHC class I molecule on T2 cells (human (endogenous in T2) | human); assay: flow cytometry on cells; internalization study (pulse-chase): T2 cells with 1 uM biotinylated peptide for 2 hr at 37 degrees, washed twice, incubated a further 4 or 22 hours; surface peptide by anti-biotin staining
[3] = molecular target: HLA-A0201 MHC class I molecule on T2 cells (human (endogenous in T2) | human); assay: flow cytometry on cells; T2 cells treated with 1 uM biotinylated peptide for 16 hours, then exposed to UV light; peptide on the cell surface stained with anti-biotin AlexaFluor 488 antibody
[4] = molecular target: HLA-A0201 MHC class I molecule on T2 cells (human (endogenous in T2) | human); assay: flow cytometry on cells; T2 cells treated with 1 uM biotinylated peptide for 16 hours, no UV; peptide on the cell surface stained with anti-biotin AlexaFluor 488 antibody

- mean fluorescence (anti-biotin) at 2 h [1]: 8.74
- mean fluorescence (anti-biotin) at 6 h [1]: 44.4
- mean fluorescence (anti-biotin) at 24 h [1]: 23.4
- mean fluorescence (anti-biotin) at 6 h, washed after 2 h [2]: 6.69
- mean fluorescence (anti-biotin) [3]: 43.2
- mean fluorescence (anti-biotin) [4]: 41.5
Binder: [Bpa]LGEQ([PEG linker-Biotin])QYSV (reading uncertain) [WT1B-S1Fbz-bio]
